Reference: the DeepSol protein solubility set

Assay: soluble on expression in E. coli; label from the status in PepcDB or PDB records

**Q.** For “GMVSRSPFESFQWKSDIFNCESTDIDNFYLLLEQEMTRLGMVEKNLGEVGKYKVSLYQSPAAKSGLPSLLISAGFHGEESAGPWGLLHFLSEASADLFERVNLSLLPLVNPTGFSRGHRFNKYGENPNRGFVFENGKPKANEHTSVEGKLLLDHAQLLIAACRDGILTCHEDVLSREAYVYSFEPSQVPGRFSLDLRDTLGGYFPIAVDGEIDACPVKDGLIFNHFDTSFEACLVRSGARVGACTETPALQNFDQRVLANSAAMTHFLALCAPLCD”, which “soluble on expression in E. coli” value is on record?
**A.** soluble

**Q.** With “GPGMSSLSNSLPLMEDVQGIRKAQKADGTATVMAIGTAHPPHIFPQDTYADVYFRATNSEHKVELKKKFDHICKKTMIGKRYFNYDEEFLKKYPNITSYDEPSLNDRQDICVPGVPALGTEAAVKAIEEWGRPKSEITHLVFCTSCGVDMPSADFQCAKLLGLHANVNKYCIYMQGCYAGGTVMRYAKDLAENNRGARVLVVCAELTIMGLRAPNETHLDNAIGISLFGDGAAALIIGSDPIIGVEKPMFEIVCTKQTVIPNTEDVIHLHLRETGMMFYLSKGSPMTISNNVEACLIDVFKSVGITPPEDWNSLFWIPHPGGRAILDQVEAKLKLRPEKFRAARTVLWDYGNMVSASVGYILDEMRRKSAAKGLETYGEGLEWGVLLGFGPGITVETILLHSLPLM” as the sequence, how does the “soluble on expression in E. coli” value read?
**A.** soluble

**Q.** Which “soluble on expression in E. coli” value does the source give for “GPGPSRPSASWQNSVSERPPYSYMAMIQFAINSTERKRMTLKDIYTWIEDHFPYFKHIAKPGWKNSIRHNLSLHDMFVRETSANGKVSFWTIHPSANRYLTLDQVFKPLDPGSPQLPEHLESQQKRPNPELRRNMTIKTELP” here?
**A.** soluble

**Q.** With “GPGSGSDERVVALKDITLAESKHSNAATTKQGASTTNCLQRSNLPPPFAPVRRGEFVMIRGPSGGGKTTLLNIIGSIDSCTEGNIELNGRIIDKDTKESVLADIRLKNIGFVFQTFNLIATMTAAENVELPMTLLGTMSTKAMRLRSRQLLTLVGLRNRINHLPSELSGGEQQRVTIARSLANNPSILLLDEPTGDLDTANTIEVMDLLMRINRRTKTTCIMVTHNPDIECYADRILYVSDGRFAKEVFNALPMCLDLENYTEYLAAKERAITGFAGVGDVEDDSEPRATAAMAECIG” as the sequence, how does the “soluble on expression in E. coli” value read?
**A.** not soluble

**Q.** Which “soluble on expression in E. coli” value does the source give for “GPGSMAASSVASVSATKASALAAKKAEKDAHDSRSLFEEYEQLSKDIKNIQLKTMICRTETHQLMKEESAAKQEVKRIQAVPLVLGNFVEVVDSVRGIVSGTSGSQYFVRILSTLNKEHLKPNVSVGLHKSSNACVQLLPSETDATITLLNSSDRPDVTYSDVGGLDMQKQEIREAVELPLTHAGLYEQIGIDPPRGVLLYGPPGTGKTMLVKAVARHTKASFIRVVGSEFVQKFLGEGPRKVRDVFRLARENAPSIIFIDEVDSIATKRFDAQTGADREVQRVLVELLTQMDGFDQTTNVKVIMATNRWDTLDPALLRPGRLDRKIEFPYPDRRQKRLVFQVCTSKMNLSPEVDLEDYVTRPEKLSGADIQSICQEAGMLAVRKNRYVILPRDIENAYRTVIKKTGDETYDFYS” here?
**A.** not soluble

**Q.** Which “soluble on expression in E. coli” value does the source give for “GPGSMAPAVIEIHIPLDRIRNEEYATDDLLLNCLSKIGDTPEEDGLPLRTWILREAHQALIKSPKLRTVLVKPQTVKDKPTHFQICFDE” here?
**A.** soluble

**Q.** With “GPGSMASQPGDALGKIEYWVQYIDCALKHPRPLPAGKHAHRQSLETIPEVAELYHCIYKLYNEEESSVWFREPVNALAQEIFTYYDVVKSPMSLRHILDNIVKGDTYSTALQVMEDVELIWKNCITFNGANSLLATEAGKCRSALDRIRRAYQDDQRITVEEAERLFRVISSMQEQQLIDNIAEYLRRDDPTSIDETGAVNFDMLKRKHFRNLERIVDNYSKSRTRS” as the sequence, how does the “soluble on expression in E. coli” value read?
**A.** soluble

**Q.** Which “soluble on expression in E. coli” value does the source give for “GPGSMATGTSPPSLVTVPLLRAALLLRWRLLSLQFDGDSNMCVLAEDAADGLPRGTRLEMYGSNVQLVRQLSGAGEALLQPSVIGEVTATLEGALTDDTTERRGRQIVAVLSPPHLSSSLGGPEFKGNEDVEVIAQWTLSRKRVENVQRVTDTTKRDGVKNEEPPPLMENGIVFPSPRFAGLRVLRAARHSFALLLENELRERTGESEVGKVGPLAVLDVSELDCTFSRVAVQMAVERGLVLEQHMHVNFVPLTPAATATADETVRSLLRLVAHPTRGAHLDPLRPLQARCFKLGCCTFCSKGRGSAANEGSKKDEASLVSRLAGVISKIHSNGTLLVNLVGDGINHEELRQGAEMHLVEALLRADRCGVVIDEVLPAADTRGTAISFVVSLC” here?
**A.** not soluble
